Data on two molecules can be found in patent US20030091568A1, “Inhibitors for the formation of soluble human CD23” (priority 2000, published 2003).

One assay addresses T1, ADAM9 (Homo sapiens, UniProt Q13443).
T1 construct: endogenous in cells
T1 sequence (Q13443 29-819): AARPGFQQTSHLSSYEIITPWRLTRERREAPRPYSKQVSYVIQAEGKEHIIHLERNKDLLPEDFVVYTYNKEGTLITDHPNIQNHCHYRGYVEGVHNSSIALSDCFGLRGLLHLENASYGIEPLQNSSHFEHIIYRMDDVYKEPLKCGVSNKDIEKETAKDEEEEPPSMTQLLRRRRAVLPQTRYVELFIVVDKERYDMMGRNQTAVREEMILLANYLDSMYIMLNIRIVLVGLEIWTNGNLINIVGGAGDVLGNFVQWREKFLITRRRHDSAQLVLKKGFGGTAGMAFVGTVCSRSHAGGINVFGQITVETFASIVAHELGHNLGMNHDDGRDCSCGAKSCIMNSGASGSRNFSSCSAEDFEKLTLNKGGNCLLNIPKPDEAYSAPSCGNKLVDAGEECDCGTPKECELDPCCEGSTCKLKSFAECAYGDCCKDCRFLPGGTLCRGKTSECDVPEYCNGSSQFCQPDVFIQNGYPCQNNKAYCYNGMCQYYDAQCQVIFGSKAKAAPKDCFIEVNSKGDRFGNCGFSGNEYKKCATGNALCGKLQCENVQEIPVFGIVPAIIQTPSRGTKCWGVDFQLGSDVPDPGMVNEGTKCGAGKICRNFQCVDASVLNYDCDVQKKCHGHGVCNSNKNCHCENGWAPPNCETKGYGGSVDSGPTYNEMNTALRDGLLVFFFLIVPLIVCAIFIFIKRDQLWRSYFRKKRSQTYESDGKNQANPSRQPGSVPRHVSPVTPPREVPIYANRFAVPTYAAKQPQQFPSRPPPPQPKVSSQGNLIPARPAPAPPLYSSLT
Briefly: Shedding of CD23 from human B cell line P493-6 (c-myc "On", endogenous ADAM9). As to conditions: TIMP concentrations known to inhibit MMPs, MT-MMPs, ADAM10 and ADAM17, FIG. 6a. In kind it is cell-based. From the text: TIMP-1, -2 and -3 are known to inhibit all known secreted matrix metalloproteinases (MMPs), membrane-type matrix metalloproteinases (MT-MMPs), as well as ADAM10 (inhibited by TIMP-1 and TIMP-3) and ADAM17 (TACE, inhibited by TIMP-3 only). In contrast, it has been shown that membrane bound ADAM9 is not inhibited by either TIMP-1, -2 or -3 (see Example 3, FIG. 3). Using the human B cell line P493-6 with a tetracycline regulatable c-myc gene allowed the upregulation of endogeneous ADAM9 via upregulation of c-myc. […] The decrease in cell surface bound CD23 correlated with the increase in the s-CD23 concentration in the culture medium assayed by ELISA (CD23 ELISA kit, Becton Dickinson, and CD23 ELISA kit, the Binding Site). […]
To inhibit matrix metalloproteinase activity, aliquots of the cells studied (transfected CHO AA8, […]) were washed three-times in serum free medium and further cultured either in the presence (1 μM TC) or absence of TC for 24-48 h, either in the presence of 2 μM batimastat (BB-94, British Biotechnology) or 20 nM-1 μM of either TIMP-1, -2, or TIMP-3. […] Surface CD23 in the presence of either of the inhibitors was quantitated by FACS analyses using a FITC-labelled monoclonal antibody against human CD23 and compared to cells cultured in the absence of the respective inhibitor. […]

A further assay has as its target T2, ADAM10 (Homo sapiens, UniProt O14672).
T2 sequence (O14672 214-748): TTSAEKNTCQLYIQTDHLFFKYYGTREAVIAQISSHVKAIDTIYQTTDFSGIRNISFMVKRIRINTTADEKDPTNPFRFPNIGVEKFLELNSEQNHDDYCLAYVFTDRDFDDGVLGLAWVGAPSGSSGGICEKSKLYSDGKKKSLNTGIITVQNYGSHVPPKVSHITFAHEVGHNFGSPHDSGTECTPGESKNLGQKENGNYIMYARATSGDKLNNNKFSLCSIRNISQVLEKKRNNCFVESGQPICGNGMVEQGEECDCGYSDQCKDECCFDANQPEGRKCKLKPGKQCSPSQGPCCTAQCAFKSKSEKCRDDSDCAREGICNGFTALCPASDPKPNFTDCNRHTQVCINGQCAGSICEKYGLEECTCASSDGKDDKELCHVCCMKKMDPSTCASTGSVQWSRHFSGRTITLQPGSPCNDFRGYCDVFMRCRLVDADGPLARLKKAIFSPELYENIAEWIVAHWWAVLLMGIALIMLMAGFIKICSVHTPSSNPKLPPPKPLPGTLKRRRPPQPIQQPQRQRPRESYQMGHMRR
Particulars: stated as known; cited from earlier work.

For “TIMP-1: tissue inhibitor of metalloproteinases 1”, in the assay with ADAM9, the “inhibition of CD23 shedding (s-CD23 in culture medium, ELISA)” value is listed as “could not be inhibited”. The “inhibition of ADAM10” value with ADAM10 is “inhibited”.

B1: TIMP-3: tissue inhibitor of metalloproteinases 3 (protein, UniProt P35625 24-211, looked up)
Metalloproteinase inhibitor 3: CTCSPSHPQDAFCNSDIVIRAKVVGKKLVKEGPFGTLVYTIKQMKMYRGFTKMPHVQYIHTEASESLCGLKLEVNKYQYLLTGRVYDGKMYTGLCNFVERWDQLTLSQRKGLNYRYHLGCNCKIKSCYYLPCFVTSKNECLWTDMLSNFGYPGYQSKHYACIRQKGGYCSWYRGWAPPDKSIINATDP
As for B1, the “inhibition of CD23 shedding (s-CD23 in culture medium, ELISA)” value with ADAM9 is given as “could not be inhibited”. In addition, in the assay with ADAM10, the “inhibition of ADAM10” value is reported as “inhibited”.
